Source: the RNAGym collection of RNA variant scans (doi:10.1093/nar/gkz1192)

B1: CPEB3 Ribozyme (parent)
chain: UAACAGGGGGCCACAGCAGAAGCGUUCACGUCGCAGCCCCUGUCAGAUUCUGGUGAAUCUGCGAAUUCUGCUGUAUAUCUC

Variants of: B1
Test: self-cleavage, relative activity (ratio to wild type); higher = more cleavage; in vitro, sequencing
Procedure, shortened: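 Libraries of CPEB3 self-cleaving ribozyme mutants came from rounds of error-prone PCR and carried barcodes, which DNA sequencing matched to variants. In vitro transcription used T7 RNA polymerase at 37°C for 5 hours, with a further 15 min in DNase I before EDTA stopped the reaction; the ribozymes cleaved during both steps. The RNA was reverse transcribed with template switching and sequenced on Illumina. Relative activity is the cleaved/total read fraction of a variant divided by that of the unmutated ribozyme, averaged over three batches with at least 5 reads.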

Row | Variant | self-cleavage
1 | A21U C29U | 0.3
2 | A21U C29A | 0.21
3 | A21U C81U | 0.29
4 | A21U C81A | 0.45
5 | A21G U58A | 0.29
6 | A21G U58G | 0.39
7 | A21G U58C | 0.31
8 | A21G U25G | 0.34
9 | A21U A45U | 0.17
10 | A21U A45C | 0.1
11 | A21U A45G | 0.29
12 | A21G U66G | 0.44
13 | A21G U66C | 1.05
14 | A21G U66A | 0.42
15 | A21G U26C | 0.29
16 | A21G U26G | 0.25
17 | A21G U26A | 0.52
18 | A21U G30A | 0.1
19 | A21U C50U | 0.4
20 | A21U C50A | 0.18
21 | G22A C38U | 0.17
22 | A21U C40U | 0.15
23 | A21U G70C | 0.05
24 | A21G U74C | 0.96

Row | Variant | self-cleavage
25 | A21G U74A | 1.03
26 | A21U G42C | 0.29
27 | A21U A65G | 0.34
28 | A21G U60A | 0.32
29 | A21G U60C | 0.27
30 | A21G U60G | 0.29
31 | A21G U49A | 0.48
32 | A21G U49G | 0.23
33 | A21G U49C | 0.27
34 | A21G U43G | 0.14
35 | A21G U43C | 0.33
36 | A21G U43A | 0.75
37 | A21G U48A | 0.35
38 | A21G U48G | 0.34
39 | A21G U48C | 0.3
40 | A21U U43C | 0.26
41 | A21U U43A | 0.5
42 | A21U U58C | 0.12
43 | A21U U58A | 0.37
44 | A21G U80G | 0.76
45 | A21G U80A | 0.72
46 | A21G U80C | 0.74
47 | A21U A77G | 0.37
48 | A21U C38U | 0.29

Row | Variant | self-cleavage
49 | A21U A28U | 0.23
50 | A21U A28C | 0.15
51 | A21U A28G | 0.22
52 | A21U C44A | 0.11
53 | A21G U54C | 0.53
54 | A21G U54A | 0.71
55 | A21G U54G | 0.4
56 | A21G U69A | 0.27
57 | A21G U69C | 0.27
58 | A21G U69G | 0.33
59 | A21U G52A | 0.33
60 | A21U C37U | 0.18
61 | G22A A65U | 0.08
62 | G22A A65G | 0.23
63 | A21U G53A | 0.29
64 | A21G U31A | 0.33
65 | A21G U31G | 0.41
66 | A21G U31C | 0.24
67 | A21G U78A | 0.53
68 | A21G U78C | 0.58
69 | A21U U67A | 0.19
70 | A21U U67C | 0.2
71 | A21U U51C | 0.34
72 | A21U U51A | 0.43

Row | Variant | self-cleavage
73 | A21U A35G | 1.03
74 | A21U A35U | 0.28
75 | A21U A47U | 0.1
76 | A21U A47G | 0.38
77 | G22A A45G | 0.14
78 | G22A A45U | 0.11
79 | A21U U49C | 0.22
80 | A21U G63U | 0.28
81 | A21U G63A | 0.5
82 | A21U G63C | 0.28
83 | A21U U31A | 0.13
84 | A21U U31G | 0.13
85 | A21U U31C | 0.3
86 | A21U U25C | 0.29
87 | A21U U25A | 0.22
88 | A21U G24A | 0.33
89 | A21U U60G | 0.17
90 | A21U U60A | 0.3
91 | A21U U60C | 0.2
92 | A21U U41C | 0.34
93 | A21U U41A | 0.26
94 | A21U U69C | 0.26
95 | A21U A75U | 0.37
96 | A21U A75G | 0.27

Row | Variant | self-cleavage
97 | G22A A57G | 0.35
98 | A21U A57G | 0.33
99 | A21U U78A | 0.38
100 | A21U U78C | 0.25
101 | A21U G22A | 0.29
102 | A21U U80C | 0.53
103 | A21U U80A | 0.44
104 | G22A A64G | 0.24
105 | G22A A64U | 0.32
106 | A21U A56G | 0.25
107 | A21U A56C | 0.18
108 | A21U A56U | 0.2
109 | G22A A35G | 0.68
110 | G22A A35U | 0.19
111 | A21U U26A | 0.35
112 | A21U U26C | 0.29
113 | A21U U72A | 0.26
114 | A21U U72C | 0.53
115 | A21U U72G | 0.17
116 | A21U C27U | 0.14
117 | A21U C27G | 0.07
118 | A21U C62U | 0.01
119 | G22A A77U | 0.1
120 | A21U U48C | 0.27

Row | Variant | self-cleavage
121 | A21G U51G | 0.72
122 | A21G U51C | 0.6
123 | A21G U51A | 0.64
124 | A21G U76C | 0.63
125 | A21G U76A | 0.55
126 | A21G U76G | 0.66
127 | G22A A56G | 0.17
128 | A21U | 0.37
129 | G22A A75U | 0.37
130 | A21U G61A | 0.34
131 | A21U U66C | 0.33
132 | A21U U66A | 1.12
133 | A21G U72G | 0.53
134 | A21G U72A | 0.44
135 | A21G U72C | 0.65
136 | A21U C71U | 0.16
137 | A21U C71G | 0.09
138 | A21U A64G | 0.18
139 | A21U A64U | 0.13
140 | A21U U54G | 0.26
141 | A21U U54A | 0.29
142 | A21U U54C | 0.29
143 | A21U U74C | 0.76
144 | A21U U74A | 0.76

Row | Variant | self-cleavage
145 | A21G U41G | 0.29
146 | A21G U41C | 0.66
147 | A21G U41A | 0.3
148 | A21G U67C | 0.24
149 | A21G U67A | 0.24
150 | A21U C68U | 0.44
151 | A21U C68A | 0.32
152 | A21U C23A | 0.22
153 | A21U C23U | 0.24
154 | A21U C23G | 0.07
155 | G22A A28C | 0.21
156 | G22A A28G | 0.4
157 | G22A A28U | 0.12
158 | G22A C37A | 0.09
159 | A21U G73A | 0.88
160 | G22A | 0.29
161 | G22A A47G | 0.48
162 | A21U C32A | 0.14
163 | A21U G33A | 0.09
164 | A21U C39U | 0.2
165 | A21U C39A | 0.31
166 | A21U U76A | 0.45
167 | A21U U76C | 0.27
